Results from the supplement of paper PMC12764529.
± gives the half width of the 95% confidence interval.

Columns and labels:
[1] = folding stability dG unfold from trypsin proteolysis; higher = more stable
Summary of the method: (§1)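 Designed mini-proteins (under 80 residues, no cysteine) in a PA-tagged cDNA display construct were digested with trypsin and chymotrypsin. Each protease was used at 11 concentrations (threefold dilutions) plus a no-protease condition, followed by sequencing. K50 was inferred by Bayesian fitting of sequencing counts, and unfolding free energy was derived against a sequence-predicted unfolded-state K50 and a shared folded-state K50, per protease or combined. Only designs with AlphaFold2 dimer inter-PAE above 15 were kept.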

[2] = folding stability dG unfold from chymotrypsin proteolysis; higher = more stable
Summary of the method: as §1

[3] = folding stability dG unfold (combined trypsin and chymotrypsin); higher = more stable
Summary of the method: as §1

Sequence: SAGGSAGGSAGGMTVLETEVTTLPNGVVKTTTLYKDPSTGALHTVTEEVYVPLGETALLSAGGSAGGSAGGS [r10_72_JUSTAS]
- folding stability dG unfold [1]: 0.716 ± 0.022 kcal/mol
- folding stability dG unfold [2]: 0.15 ± 0.15 kcal/mol
- folding stability dG unfold [3]: 0.523 ± 0.11 kcal/mol

Sequence: SAGGSAGGSAGGMIKTKDGKVLEFKSLEEALAALKELGVDEVEIEELEPEGVVKVKVKPSAGGSAGGSAGGS [r10_1191_TrROS_Hall]
- folding stability dG unfold [1]: 0.301 ± 0.03 kcal/mol
- folding stability dG unfold [2]: 1.34 ± 0.039 kcal/mol
- folding stability dG unfold [3]: 1.11 ± 0.11 kcal/mol

Sequence: SAGGSVVPLPLDETVELTFDGTTATFTALPDGTATATFTGPDSTARATFPPDGAVTVTVPGAGTTAASAGGS [r16_725_JUSTAS]
- folding stability dG unfold [1]: -1.18 ± 0.62 kcal/mol
- folding stability dG unfold [2]: -0.268 ± 0.19 kcal/mol
- folding stability dG unfold [3]: -0.404 ± 0.19 kcal/mol

Sequence: SAGGSAGGSAGGDNVLILVKLPKGYRVYSINDPEVLKAVTLKELKDELEKKTGYPVEVLPSAGGSAGGSAGG [r7_259_TrMRF]
- folding stability dG unfold [1]: 1.48 ± 0.041 kcal/mol
- folding stability dG unfold [2]: 1.66 ± 0.18 kcal/mol
- folding stability dG unfold [3]: 1.57 ± 0.22 kcal/mol

Sequence: SAGGSAGGSEEKTVLARIKITFPDGEKREIEVEMTLDELKKLLEELGLSEEEVKIEVELVPLPSAGGSAGGS [r20_154_TrROS_Hall]
- folding stability dG unfold [1]: 3.99 ± 0.11 kcal/mol
- folding stability dG unfold [2]: 3.56 ± 0.071 kcal/mol
- folding stability dG unfold [3]: 3.8 ± 0.087 kcal/mol

Sequence: SAGGSAGGSAGGSVTISYNPETGTVVISSPKNKKIITINAENYTPEEILEKAKEAGIDLSAGGSAGGSAGGS [r4_49_TrMRF]
- folding stability dG unfold [1]: 0.613 ± 0.035 kcal/mol
- folding stability dG unfold [2]: 2.02 ± 0.056 kcal/mol
- folding stability dG unfold [3]: 1.64 ± 0.045 kcal/mol

Sequence: SAGGSAGGSAGGKKVTITLKDANGKELKIEVKEGEEVTIEVGGKKYKLTVKDGKIELKPVSAGGSAGGSAGG [r7_510_TrROS_Hall]
- folding stability dG unfold [1]: 4.03 ± 0.28 kcal/mol
- folding stability dG unfold [2]: 4.67 ± 0.23 kcal/mol
- folding stability dG unfold [3]: 4.61 ± 0.44 kcal/mol

Sequence: SAGGSAGGSGDSITLPVSVPKGSELVIENLSTNKKVIIPDDGPVTITIDKGKDGLKISAEVEKSAGGSAGGS [r12_919_TrMRF]
- folding stability dG unfold [1]: -0.398 ± 0.16 kcal/mol
- folding stability dG unfold [2]: 0.106 ± 0.053 kcal/mol
- folding stability dG unfold [3]: -0.0498 ± 0.25 kcal/mol

Sequence: SAGKKVTIKAIVRVKLANGEWFEAKVKEVTFDEETGEVTITVEVDGKTYTITVPLEDIELVDDAEEALKSAG [r5_15_TrROS_Hall]
- folding stability dG unfold [1]: 2.19 ± 0.034 kcal/mol
- folding stability dG unfold [2]: 3.72 ± 0.064 kcal/mol
- folding stability dG unfold [3]: 3.25 ± 0.063 kcal/mol

Sequence: SAGGMPLEDMSLEELKARLEEALEELRAKLPPGEKKTLTLTVTLTVVDKETGETRTVTLTVTLTLPAPSAGG [r13_385_TrROS_Hall]
- folding stability dG unfold [1]: 3.43 ± 0.064 kcal/mol
- folding stability dG unfold [2]: 4.38 ± 0.052 kcal/mol
- folding stability dG unfold [3]: 4.16 ± 0.076 kcal/mol

Sequence: SMKIVKIEIEKIEIYSDEEFAKKTGIKPEAIYKNGKKKKVIKIPVKITLYDEKKGEKKEFEAEITIVIDVSA [r9_382_TrMRF]
- folding stability dG unfold [1]: 1.56 ± 0.15 kcal/mol
- folding stability dG unfold [2]: 2.61 ± 0.19 kcal/mol
- folding stability dG unfold [3]: 2.2 ± 0.38 kcal/mol

Sequence: MRIEIRVEKVEDGFYKVTIRLEETGETLELVVPKSLEEAKAAAEELLRELFPDVKVTEIRVERVPLPEEDLS [r1_80_TrROS_Hall]
- folding stability dG unfold [1]: 3.03 ± 0.077 kcal/mol
- folding stability dG unfold [2]: 2.77 ± 0.063 kcal/mol
- folding stability dG unfold [3]: 2.9 ± 0.07 kcal/mol

Sequence: SAGGSPTREVVLPTKDPTADKAFYTVRITLTEPPSNSTAVTVTFLDLPPDVEPSPELVAAVEAALSSAGGSA [r2_7_JUSTAS]
- folding stability dG unfold [1]: 0.46 ± 0.036 kcal/mol
- folding stability dG unfold [2]: 0.436 ± 0.13 kcal/mol
- folding stability dG unfold [3]: 0.495 ± 0.056 kcal/mol

Sequence: SAGLGLEKAKKLAEKIAETLKKELEKELGIPADQIKVEAKVEKLPDGSYKITVKINLKDIPIEKVFYVDSAG [r14_226_TrMRF]
- folding stability dG unfold [1]: 3.5 ± 0.52 kcal/mol
- folding stability dG unfold [2]: 2.9 ± 0.069 kcal/mol
- folding stability dG unfold [3]: 2.87 ± 0.31 kcal/mol

Sequence: SANPIPLEKANITVSYTSPDGLVVTANITSVTYDPSTGKYTFTFTGTLTDPSTGTTTPVSFTVSTVTLSSAG [r14_825_JUSTAS]
- folding stability dG unfold [1]: 2.68 ± 0.1 kcal/mol
- folding stability dG unfold [2]: 4.25 ± 0.099 kcal/mol
- folding stability dG unfold [3]: 3.79 ± 0.13 kcal/mol

Sequence: SAGGSAGGMKVEVVFLVPGEVFSKFTPPLSEDDPVLLVLVFDVPAPPPVPRYVYDPETGEWRPESAGGSAGG [r6_211_TrMRF]
- folding stability dG unfold [1]: 2.39 ± 0.047 kcal/mol
- folding stability dG unfold [2]: 3.72 ± 0.099 kcal/mol
- folding stability dG unfold [3]: 3.22 ± 0.11 kcal/mol

Sequence: SAGDEALLERIRARAEAEAKAAGPDPTPLDYRVEVEPVEIDEETGTVKVRVTITAPDREVEREVTVPLVSAG [r5_53_JUSTAS]
- folding stability dG unfold [1]: 0.315 ± 0.051 kcal/mol
- folding stability dG unfold [2]: -0.113 ± 0.096 kcal/mol
- folding stability dG unfold [3]: 0.0838 ± 0.088 kcal/mol

Sequence: SAGGSAGGSAGGSPPGQEILIQIKIEFTFPIKKQTDGKPQWHPITISFTAAIPIKVDPNSAGGSAGGSAGGS [r4_271_TrROS]
- folding stability dG unfold [1]: 3.22 ± 0.13 kcal/mol
- folding stability dG unfold [2]: 3.59 ± 0.092 kcal/mol
- folding stability dG unfold [3]: 3.52 ± 0.14 kcal/mol

Sequence: SAGGSAGGSAGGMVYFPESLKEEVIEELKKKGYKIKSIEKIEGGYIRITTPKNPIEIKLLSAGGSAGGSAGG [r17_379_JUSTAS]
- folding stability dG unfold [1]: 0.443 ± 0.084 kcal/mol
- folding stability dG unfold [2]: 0.786 ± 0.25 kcal/mol
- folding stability dG unfold [3]: 0.8 ± 0.17 kcal/mol

Sequence: SAGGSAGGSAGMTLLVKNEDGYLVKIEITEVEVDENGELHLKVKVEVLPPLEEVEEVEEESAGGSAGGSAGG [r17_536_TrROS_Hall]
- folding stability dG unfold [1]: 1.4 ± 0.076 kcal/mol
- folding stability dG unfold [2]: 1.79 ± 0.054 kcal/mol
- folding stability dG unfold [3]: 1.65 ± 0.17 kcal/mol

Sequence: SAGGSGIDFDIEFHNNHITIDIYMYDPNGQPIFEMTMTIPIPPVPPPPVPEVKVDDPEEAKEAKNQSAGGSA [r2_332_TrROS]
- folding stability dG unfold [1]: 0.751 ± 0.14 kcal/mol
- folding stability dG unfold [2]: 2.35 ± 0.17 kcal/mol
- folding stability dG unfold [3]: 1.89 ± 0.21 kcal/mol
